In the supplement of paper PMC10126150:
± gives the standard deviation of the averaged measurements.

System: ATP
Assay: switch fluorescence ratio, 500 uM ATP over buffer (Cy3 cluster intensity, sum of 5 cycles each) (fold (ratio)); higher = stronger signal-on switching upon ATP binding; sequences stand for … in TCGTCGGCAGCGTCAGATGTGTATAAGAGACAGTTTTTTTTTTTTTTTTTTTTTTTTT…TC
Details: aptamer strand: ATP DNA aptamer (quencher-CACCTGGGGGAGTATTGCGGAGGAAGG + anchor), 100 nM annealed; ATP concentration: 500 uM
Outline: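 After annealing to 100 nM quencher-labelled ATP aptamer, Cy3-labelled switching-strand clusters on a modified Illumina MiSeq flow-cell were imaged in selection buffer. A second image followed after 15 min with 500 uM ATP at 22 °C, and five such buffer/ATP cycles were done, each separated by NaOH stripping and re-annealing. The fluorescence ratio, averaged per switch-domain sequence, is summed target-cycle over summed buffer-cycle Cy3 intensity per cluster, with clusters outside 100-1000 RFU excluded.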
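Further: ATP exposure 15 min at 22 °C before imaging.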

Sequence	switch fluorescence ratio
TTTAGGGTTT	1.06 ± 0.19
TTTAGGTGGT	1.11 ± 0.2
TTTAGTCATT	0.989 ± 0.04
TTTAGTCCCC	1.06 ± 0.046
TTTAGTCGGT	0.9638 ± 0.0056
TTTAGTGACA	0.9978 ± 0.0036
TTTAGTGCAT	1.03 ± 0.034
TTTAGTGTAA	0.966 ± 0.019
TTTAGTTATT	0.998 ± 0.017
TTTAGTTGCC	0.984 ± 0.058
TTTATAAATG	1.014 ± 0.0017
TTTATACGGT	1.01 ± 0.005
TTTATAGAGT	1.03 ± 0.029
TTTATAGGCG	0.987 ± 0.023
TTTATAGGGA	0.987 ± 0.015
TTTATAGGGC	1.01 ± 0.021
TTTATAGGTG	1.14 ± 0.089
TTTATATTAA	1.03 ± 0.049
TTTATATTCT	1.03 ± 0.074
TTTATATTTG	1 ± 0.027
TTTATCAGCT	0.9985 ± 0.0065
TTTATCGTTT	1 ± 0.032
TTTATGGAAT	0.998 ± 0.015
TTTATGGTCC	1.02 ± 0.029
TTTATGGTTT	1 ± 0.031
TTTATGTATT	1 ± 0.022

Sequence	switch fluorescence ratio
TTTATGTGGA	1.01 ± 0.027
TTTATTAGTT	0.998 ± 0.025
TTTATTCAAG	0.988 ± 0.021
TTTATTCGCG	1.03 ± 0.029
TTTATTGCAT	1.018 ± 0.0082
TTTATTTAAC	1.052 ± 0.01
TTTATTTAGC	1.02 ± 0.034
TTTATTTGAT	0.9955 ± 0.0012
TTTATTTTCC	1.05 ± 0.033
TTTCAAAAAT	1.01 ± 0.044
TTTCAAATCT	1.026 ± 0.0019
TTTCAAATGT	1.11 ± 0.17
TTTCAAGGGG	0.996 ± 0.011
TTTCAAGTAC	1.49 ± 0.21
TTTCAATAAT	0.988 ± 0.023
TTTCAATAGT	1.09 ± 0.14
TTTCAATATT	1.03 ± 0.031
TTTCAATCTG	1.04 ± 0.038
TTTCAATGGT	1 ± 0.045
TTTCACAAAG	1 ± 0.018
TTTCACGCTC	1.12 ± 0.21
TTTCACGGGA	1.07 ± 0.066
TTTCACTATT	1.01 ± 0.026
TTTCAGACAC	1.02 ± 0.011
TTTCAGGTGT	2.15 ± 0.98
TTTCAGTGAC	1.04 ± 0.079

Sequence	switch fluorescence ratio
TTTCATAGTT	0.954 ± 0.017
TTTCATATTT	1.03 ± 0.014
TTTCATGGTA	0.998 ± 0.0099
TTTCATTCGG	1.06 ± 0.13
TTTCATTGGT	1 ± 0.027
TTTCCAAACA	1.01 ± 0.014
TTTCCAAGGT	1.12 ± 0.11
TTTCCACGGG	1.18 ± 0.025
TTTCCCGGCT	1.04 ± 0.083
TTTCCCGTTT	1.13 ± 0.095
TTTCCGTGAT	1.918 ± 0.013
TTTCCTGACG	1.06 ± 0.028
TTTCCTGGCT	1.02 ± 0.032
TTTCCTTGAA	0.974 ± 0.017
TTTCGAAGGT	0.987 ± 0.019
TTTCGAATAT	0.9836 ± 0.0061
TTTCGACGTC	0.997 ± 0.12
TTTCGAGAGA	1.02 ± 0.027
TTTCGAGTCA	1 ± 0.03
TTTCGATTCT	0.978 ± 0.029
TTTCGCCGTT	1.003 ± 0.0055
TTTCGGAAAG	0.967 ± 0.042
TTTCGGAACA	1.001 ± 0.0066
TTTCGGAGAA	0.962 ± 0.028
TTTCGGAGTG	1.024 ± 0.0066
TTTCGGCGTT	1.043 ± 0.0069

Sequence	switch fluorescence ratio
TTTCGGGTAC	1.2 ± 0.22
TTTCGGGTGG	0.979 ± 0.023
TTTCGGTGTG	0.977 ± 0.0098
TTTCGTGCCT	1.065 ± 0.0026
TTTCGTGGAG	0.996 ± 0.02
TTTCGTGTGA	1.015 ± 0.0062
TTTCGTTGCT	0.994 ± 0.018
TTTCGTTGGT	0.982 ± 0.016
TTTCTATGTA	1.01 ± 0.024
TTTCTCGTAG	0.991 ± 0.016
TTTCTCGTTG	0.9908 ± 0.0074
TTTCTCTACG	1.015 ± 0.0056
TTTCTGAGTT	1.01 ± 0.032
TTTCTGCGGC	1.046 ± 0.0017
TTTCTGGCAA	1.32 ± 0.38
TTTCTGGCGA	1.054 ± 0.01
TTTCTGGTCT	1.03 ± 0.012
TTTCTGTATC	1.04 ± 0.044
TTTCTGTTGT	1.14 ± 0.16
TTTCTGTTTC	1.04 ± 0.052
TTTCTGTTTT	0.9913 ± 0.0088
TTTCTTATGT	1.03 ± 0.024
TTTCTTCGCG	1.027 ± 0.0032
TTTCTTGTTT	0.985 ± 0.055
TTTGAAAACT	0.995 ± 0.024
TTTGAACTTC	1.27 ± 0.38

Sequence	switch fluorescence ratio
TTTGAAGAAC	1.01 ± 0.056
TTTGAAGCAG	1.08 ± 0.068
TTTGAAGTGG	1.03 ± 0.03
TTTGAATTAA	1.01 ± 0.049
TTTGAATTTG	0.974 ± 0.023
TTTGACAAGC	1.15 ± 0.18
TTTGACCCTA	1.04 ± 0.019
TTTGACGGTT	1.03 ± 0.015
TTTGACTGAG	0.997 ± 0.023
TTTGAGAAAG	0.992 ± 0.019
TTTGAGACGT	1.02 ± 0.041
TTTGAGATTG	0.99556 ± 0.00097
TTTGAGCTCT	0.97 ± 0.014
TTTGAGCTGG	0.996 ± 0.035
TTTGAGGGTC	0.991 ± 0.037
TTTGAGGTTT	1.01 ± 0.011
TTTGAGTAAA	1.01 ± 0.019
TTTGAGTAAG	1.02 ± 0.046
TTTGAGTTT	0.981 ± 0.012
TTTGATAAAG	1.03 ± 0.092
TTTGATACGG	1 ± 0.028
TTTGATATAG	0.994 ± 0.034
TTTGATCTTG	1.01 ± 0.013
TTTGATGAGA	1 ± 0.028
TTTGATGAGT	1.01 ± 0.013
TTTGATGGGG	0.988 ± 0.025

Sequence	switch fluorescence ratio
TTTGATGGTG	1.04 ± 0.012
TTTGATTCAG	1.04 ± 0.071
TTTGATTGCA	1.03 ± 0.068
TTTGATTGCG	1 ± 0.011
TTTGATTTTG	0.989 ± 0.016
TTTGCAATTG	1.13 ± 0.062
TTTGCACCAT	1.03 ± 0.017
TTTGCAGAAC	1.2 ± 0.15
TTTGCAGCGG	1.02 ± 0.012
TTTGCCATTT	1.02 ± 0.033
TTTGCCCAGA	1.02 ± 0.041
TTTGCCCCTG	1.03 ± 0.021
TTTGCCGAGT	0.996 ± 0.044
TTTGCCGCCC	1.145 ± 0.0012
TTTGCGACCT	1.13 ± 0.066
TTTGCGATGG	1.09 ± 0.011
TTTGCGGAGG	1.27 ± 0.48
TTTGCGGGAT	1.03 ± 0.014
TTTGCTACGG	1.05 ± 0.013
TTTGCTAGAT	1.047 ± 0.0097
TTTGCTATCA	0.984 ± 0.013
TTTGCTGAAA	0.964 ± 0.026
TTTGCTGGTA	1.006 ± 0.0064
